Test: soluble on expression in E. coli; label from the status in PepcDB or PDB records
For “MAKKEIEPKTEQAKRLRLIRKSLQLHRDQIATRLGINKAIYDHAERGTTFPNVEFLTALSQQLKVNLNWFITGNGEMFTDMAKAKAAGFKPQAIPAGLMKRLGHLAYTTYRDAKITLPPEDVAELAAGLYGKLQELIYNINDMEEVEATLPLLKLHLKRQVEAEKAH”, the “soluble on expression in E. coli” value was “not soluble”. For “LGLWPVHRLSEEARRISPRQLSQRLQLSPLPAELRELVGAFNGALDRLEQAYVRLESFNADVAHELRTPLTNLIGQTQVALSRERSGEHYEEVLQSNLEELERLRAIVNDMLFLARADQGRLACEREETSLAGEIATTVDFLEVIFDEAGVGIEVRGEARALVERALFQRAVTNLLYNAAQHTAAGGTLRVGVERRGDEVRVAVSNPGVPIADEHRRHLFERFYRVDAARSNSEANHGLGLSIVKAVASMHGGSVFVDSADGWNTFGFTVLSPERRGPGDR”, the “soluble on expression in E. coli” value was “not soluble”. For “GAMRIMRPDDANVAGNVHGGTILKMIEEAGAIISTRHCNSQNGERCVAALARVERTDFLSPMCIGEVAHVSAEITYTSKHSVEVQVHVMSENILTGTKKLTNKATLWYVPLSLKNVDKVLEVPPIVYLRQEQEEEGRKRYEAQKLERMETK”, the “soluble on expression in E. coli” value was “soluble”. With “MLSFLQSFFKSLGYEDYFKPIAPSSPRFFTKYCNETQKKITIVIDSNNIIRPFVFDESNEREPLFVAHLGCSECMRWNRMYGENIAENNEPETDSEDETDYESETSDSELGQDSPNPNLSEALNNCIENFDQLVDEVVRHKDFHERSQLLRVLEECLGNMNSFLQNENLTVDDISTGACALLNETAEKLKQMFSSSGISGRKESSEGTNKDLIKFGELEIRGDEEEDDDDESYVEGEEEDSSDEDLDDEDQEGESSIEPRLSETFKKSEARESLSSKEAPVKDLVIYQKFRDEHEDLEESENEPRMSDEAEKLVEDKIIEESDEDSFDIIGRDEELDDDSNGKEEEELELDVTQEDSEDDEQFFSL” the “soluble on expression in E. coli” value was “not soluble”. For “MVVEMLGKLKEKLQSFIRRVEENVEKEEDEAKKKGLLDKILMIEIKEKDIEEALEDLELELLEADVALEVVDELKDRIKRNLVGKKVRIGTNKEKIIEEAVRKAVLEILTPEKKMDLLEEIKKAEKPYVILFVGFNGSGKTTTIAKLAHWLKKNGFSVVIAASDTFRAGAIEQLEEHAKKVGVKVIKHKYGADPAAVAYDAIQHAKARGIDVVLIDTAGRSETNRNLMDEMKKIARVTKPNLVIFVGDSLAGNAIVEQARQFNQAVKIDGVILTKLDADARGGAALSISHVINAPILFVGIGQGYEDLIPFDERWFVEKILGEESA”, the “soluble on expression in E. coli” value was “soluble”. With “MGSDKIHHHHHHVAPPTKGGLAEAENKMENKMTEQQGYWIGEAGKPWGEAEKAKWRAAQQKKRSYEQEVLSKFSQVSESFEAQQYGELNYAEGQYPLYGFKSRDWDQEKPTILVTGGVHGYETSGVQGALRFLIAKAAEYSQDFNILVAPCVSPWGYETINRWNPEAIDPNRSFYADSPAQESRALMQWVASFNLPLMAHIDLHETTDTDNSEFRPALAARDAKVQTNWNIPDGFYLVGDSENPNDEMQAAIIAAVGKVTHIAPADEQGRLIGEPITQFGVINYATKALGLCSGFSDARYNTTTEVYPDSPLVDDENCIQAQVMAVSSALDYIRSQG” the “soluble on expression in E. coli” value was “not soluble”. With “MGSDKIHHHHHHMHVGRENSSFQICNSSQDIRKSDILDAMSIRFRQLQAFHATFETGTVTGAATLLGISQPGISNLLAQLERETRFKLFERVKGRLIPTPEAGVLYQEVDTVVRGLDHVGQAVTDLQNKQGGQLQVASQHAMSFGFMPKLIAQFAKTRPDMSISFQSQYSSKVQEWVMSGLFEIGVCETPQLYDALDTHPFQVEMQLTLHPDNPLARHDILTPELCGAEPFIVMGPDHMTHRRTREAFHTAGVPWNTRVHTHLFKNMLSFVQEDMGVAILDPFLLDHDESGSFVTRPFAPAIHMDMMVITSATRPLSTLALDFLDLLLTGIAQSDRRRVSPSNAAPGRPPLPMAAR” the “soluble on expression in E. coli” value was “not soluble”. With “MLPVITRFARPALMAIRPVNAMGVLRASSITKRLYHPKVIEHYTHPRNVGSLDKKLPNVGTGLVGAPACGDVMRLQIKVNDSTGVIEDVKFKTFGCGSAIASSSYMTELVQGMTLDDAAKIKNTEIAKELSLPPVKLHCSMLAEDAIKAAIKDYKSKRNTPTMLS” the “soluble on expression in E. coli” value was “not soluble”. With “MGSDKIHHHHHHMLKIGKRNPNKPLVIENDQVVSLYFDARGVQSTMLRHDPYALALGYTRTMMGFLLFRPSPCRISMIGLGGGSLAKYCYRHLPDTAITAIEINPDVIALRDHFHVPRDDGRFTVVCADGAQYVAVPGHRPDVLLVDGFNADGLPARLGSSAFYEACRRRLSDDGVLVANLVTDEPDFHRYLRALWEVFAGAVALAPSEGSEHNVTVFAWKGAGGLPSFAAMLDRARALQARHAVNLHATATRIEYGKKFNWSRYGRTA” the “soluble on expression in E. coli” value was “not soluble”. In the case of “MRDMGEPKLKIVAMPSDTNPAGNIFGGWILSQIDLAGAIAARELSPERVVTISMDKVVFKEPVFIGDIISCYSKVVNVGNTSISVEVEVTAQRVDSQGCTSCINVTSALVTYVSVTRDGKKNPISEELKRIHGFLNALEHHHHHH”, the “soluble on expression in E. coli” value is reported as “soluble”. With “MGHHHHHHSHMTWKGGGGWMAAVTQGPGITWGSLLPSAVRQGEQKCKNTDVSIFLNWGVEGCLLTASKELTVEGPQCIPPLPESLSPLGPPGSQSSEETDPSCFNSCCCFSLWAGPGRGRAEQAPGGLQSQLDLAVSPAGSPADTGEVG” the “soluble on expression in E. coli” value was “not soluble”. With “NTKQLRFEDVVNQSSPKNCTVYCGGIASGLTDQLMRQTFSPFGQIMEIRVFPEKGYSFVRFSTHESAAHAIVSVNGTTIEGHVVKCYWGKESPDMT” the “soluble on expression in E. coli” value was “soluble”. In the case of “YEGGWTQDKQWEREMNIAQEKYGPIFAKYAAMPIEEVAKDEHAMKMGSRMFATYCSICHGSDAKGALGFPNLADNEWRWGGDPQSIETTILGGRHAIMAAWGDILGEDGVKNVAAYVRTELAGLKLPEGTKADVEAGKQIFSVNCVACHGPEGKGTALVGAPNLTNPGAFIYGSSYAQLQQTIRHGRQGQMPAQEPYLGKEKVHILAAYI”, the “soluble on expression in E. coli” value is reported as “not soluble”. In the case of “MSLARHEAIVEPAQSTHTSGAHTSGAQAQPGVRPTTAAGRWRDVEMMAYKQDDAAPFRDVTRQLLFSDPRLACEWRYFEVAAGGYSTLEKHDHVHGVMIHRGKGQCLVGHHVSDVAVGDLVFIPPQTWHQFRANAGDVLGFLCLVNAERDRPQLPGDGDLAALRADPAIADFLSSEGHHHHHH”, the “soluble on expression in E. coli” value is reported as “soluble”. In the case of “MAKTIRDESTASAYWAAVNTFCALKDVHVIADAPVGCYNLAGVAVMDYTDAIPYLENLTPTSLTEREISSSGSSQIVQETIEKLMGSGKQLILVSSAESEMIGSDHQHMLAMKYPSVRFFASDSLGENEWQGRDRALAWLFDQFDDGQPSQIEPGTVSIIGPTYGCFNSPADLAEVKRLVTGAGGRVAHVYPFESKAAEITKLKNSAAIVVMYREFGAALAEKLGRPVLYAPFGIEETDRFIGKIGRLCGTPEQATRFIAEEKRTTLSPVWDLWRGPQSEWFPTIRFGVVASKSYADGIKHVLGDELGMQCLFSLDSAEVDNNAVRKEIVQKQPQFLYGRMPDKIYLAEADAKSRFIPAGFPGPIVRRALGTPFMGHSGVVWLVQEIVNALYDTLFNFLPITRRQQAAAPTKPLKWTPEANAILDGIVRKAPFISQISFGRELKRKAENLAASRGADTVTPDILQQLG”, the “soluble on expression in E. coli” value is reported as “soluble”. In the case of “MESEMSDPQPLQEERYDMSGARLALTLCVTKAREGSEVDMEALERMFRYLKFESTMKRDPTAQQFLEELDEFQQTIDNWEEPVSCAFVVLMAHGEEGLLKGEDEKMVRLEDLFEVLNNKNCKALRGKPKVYIIQACRGEHRDPGEELRGNEELGGDEELGGDEVAVLKNNPQSIPTYTDTLHIYSTVEGYLSYRHDEKGSGFIQTLTDVFIHKKGSILELTEEITRLMANTEVMQEGKPRKVNPEVQSTLRKKLYLQ”, the “soluble on expression in E. coli” value is reported as “soluble”. For “MAHHHHHHMCHLCDVPVITPDKGVIQSGCGLHPKKTLGNGGAGGVHPGKNTTQETGFPTTGGPNNQHIHLRLCDLVLPRVEYNILPQIFRGVNRDLRHSWSILGGQCGTVKVRRVSLQHAVGATRLHVSVQETAPPFPLHGVTPPLHPLCGAHKLDGQFTDTAGQRTTRPLYTSHTRRIPTAFSLFYSPFFCVPSSNRAPSSSALHVPLTRRWQKGRRRLGTSHARTPRPHSPK”, the “soluble on expression in E. coli” value was “not soluble”. With “ATEEEYQLFLEPYLQETRLGAYDFPLFSTIFKAFSKKGSFKSLIDPYCFGQALSNGRAITFVVTHDIPNNDVFLDLIMDEEDEWIAYAYILGRDGGVPLVYTDLDTSGIKNKNGKPRWKDAWNDPRMAKMIAFHNVTHGESMTVLEGNDDMLVLKRGEKGIVVLNKSTRAQSLSLKTECDWFDLMSDQSVKAGIELKVPAKSFMLLVQK” the “soluble on expression in E. coli” value was “not soluble”.

Source: the DeepSol protein solubility set
